Data on two molecules can be found in US6462189.

The target of this experiment is T1, Yeast ubiquitin (yeast, UniProt P0CG63 1-76).
T1 construct: mature; also called soluble ubiquitin; free ubiquitin
In words: clone obtained by phage panning on immobilized ubiquitin. On the procedure: Libraries 2 and 4, described in Example VI above, were used to select ubiquitin-binding monobodies. Ubiquitin (1 μg in 50 μl sodium bicarbonate buffer (100 mM, pH 8.5)) was immobilized in the wells of a microtiter plate, followed by blocking with BSA (3% in TBS). Panning was performed as described above. In the first two rounds, 1 μg of ubiquitin was immobilized per well, and bound phage were elute with an acidic solution. From the third to the sixth rounds, 0.1 μg of ubiquitin was immobilized per well and the phage were eluted either with an acidic solution or with TBS containing 10 μM ubiquitin.

T1 sequence (P0CG63 1-76 limits assumed): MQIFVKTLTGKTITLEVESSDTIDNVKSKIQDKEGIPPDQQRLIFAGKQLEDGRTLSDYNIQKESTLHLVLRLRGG

B1: ubiquitin-binding monobody 422 (phage clone) (designed binder, not shown: large carriers; small tags and cut ends)
chain: VSDVPRDLEVVAATPTSLLISWDAPARWTLYYRITYGETGGNSPVQEFTVPGSKSTATISGLKPGVDYTITVYAVTRRWWWSKPISINYRT
notes: Library 4 clone obtained by panning on ubiquitin; no test of it as a single clone is reported
As for B1, the binding result is reported as “binds”.

B2: ubiquitin-binding monobody 424 (phage clone) (designed binder, not shown: large carriers; small tags and cut ends)
chain: VSDVPRDLEVVAATPTSLLISWDAPGQRTFYYRITYGETGGNSPVQEFTVPGSKSTATISGLKPGVDYTITVYAVTRRWWASKPISINYRT
notes: as for B1
On to B2, for which the binding result is listed as “binds”.
